Assay results published in PMC5268420 (PLoS ONE, 2017).

Legend:
[1] = target: T1, αIIbβ3 integrin on human platelets (Homo sapiens, UniProt P08514;P05106); experiment: flow cytometry on cells; washed human platelets activated with 0.5 U/ml thrombin, PFA-fixed; 25 μg/mL TEG4-2c scFv overnight at 4°C; detected with Alexa Fluor 488 anti-6His; conditions: one partner purified
T1 construct: integrin αIIb (CD41), human, on platelets; integrin β3, human, on platelets; the state is told by the assay; also called A-PL; NA-PL; source: endogenous, human platelets (washed platelets and platelet-rich plasma from healthy donors; platelets in human coronary artery sections)

purified αIIbβ3 integrin = target: T2, purified αIIbβ3 integrin (Homo sapiens (assumed), UniProt P08514;P05106); experiment: SPR; Biacore 3000; αIIbβ3 amine-coupled on CM5 (about 8000 RU); scFv injected at 94, 188 and 390 nM; HBS-EP with 2 mM Ca2+; 20 μL/min; conditions: both partners purified
T2 construct: integrin αIIb (CD41) subunit of purified αIIbβ3; integrin β3 subunit of purified αIIbβ3; probably from human platelets (surmise); also called integrin αIIbβ3; source: bought: Kordia Life Sciences

[2] = target: T3, αIIbβ3 integrin on lyophilized platelets (Homo sapiens (assumed), UniProt P08514;P05106); experiment: BLI; Octet Red96; TEG4-2c scFv loaded on HIS2 (anti-penta-His) sensor at 21 μg/mL; platelets 5x10^5 to 5x10^8/mL (αIIbβ3 42 pM to 42 nM) as analyte; platelet buffer; conditions: one partner purified
T3 construct: integrin αIIb (CD41) on lyophilized platelets; integrin β3 on lyophilized platelets; Platelet concentrations were converted into αIIbβ3 molarities with 50 000 αIIbβ3 per platelet; also called whole platelets; blood platelets; source: bought: lyophilized platelets, Helena Biosciences Europe, resuspended

[3] = target: T4, αIIbβ3 integrin on murine platelets in atherosclerotic aorta sections (Mus musculus, ApoE-/-, UniProt Q9QUM0;O54890); experiment: immunostaining of cells or tissue; paraffin sections of atherosclerotic arteries of mouse, rabbit and human; scFv 20-40 μg/ml overnight at 4°C; detected with HRP anti-6His and DAB; conditions: one partner purified
T4 construct: integrin αIIb (CD41), mouse, on platelets in tissue; integrin β3, mouse, on platelets in tissue; source: endogenous, paraffin sections of aorta of ApoE-/- mice

[4] = target: T5, αIIbβ3 integrin of rabbit platelets in aorta (Oryctolagus cuniculus, New Zealand, UniProt Q9TUN4;Q9TUN3); experiment: as above; conditions: one partner purified
T5 construct: integrin αIIb (CD41), rabbit, endogenous in aorta tissue; integrin β3, rabbit, endogenous in aorta tissue; In the ELISA the integrin stood within solubilised aorta proteins (T-PER or HSB lysis buffer), not on cells; also called atheromatous proteins; healthy aorta proteins; source: endogenous, New Zealand rabbit aorta (paraffin sections; soluble protein extracts of atheromatous and healthy aorta)

Measured: binding result

T2 sequence (P08514 32-1039, chain 1 of 2): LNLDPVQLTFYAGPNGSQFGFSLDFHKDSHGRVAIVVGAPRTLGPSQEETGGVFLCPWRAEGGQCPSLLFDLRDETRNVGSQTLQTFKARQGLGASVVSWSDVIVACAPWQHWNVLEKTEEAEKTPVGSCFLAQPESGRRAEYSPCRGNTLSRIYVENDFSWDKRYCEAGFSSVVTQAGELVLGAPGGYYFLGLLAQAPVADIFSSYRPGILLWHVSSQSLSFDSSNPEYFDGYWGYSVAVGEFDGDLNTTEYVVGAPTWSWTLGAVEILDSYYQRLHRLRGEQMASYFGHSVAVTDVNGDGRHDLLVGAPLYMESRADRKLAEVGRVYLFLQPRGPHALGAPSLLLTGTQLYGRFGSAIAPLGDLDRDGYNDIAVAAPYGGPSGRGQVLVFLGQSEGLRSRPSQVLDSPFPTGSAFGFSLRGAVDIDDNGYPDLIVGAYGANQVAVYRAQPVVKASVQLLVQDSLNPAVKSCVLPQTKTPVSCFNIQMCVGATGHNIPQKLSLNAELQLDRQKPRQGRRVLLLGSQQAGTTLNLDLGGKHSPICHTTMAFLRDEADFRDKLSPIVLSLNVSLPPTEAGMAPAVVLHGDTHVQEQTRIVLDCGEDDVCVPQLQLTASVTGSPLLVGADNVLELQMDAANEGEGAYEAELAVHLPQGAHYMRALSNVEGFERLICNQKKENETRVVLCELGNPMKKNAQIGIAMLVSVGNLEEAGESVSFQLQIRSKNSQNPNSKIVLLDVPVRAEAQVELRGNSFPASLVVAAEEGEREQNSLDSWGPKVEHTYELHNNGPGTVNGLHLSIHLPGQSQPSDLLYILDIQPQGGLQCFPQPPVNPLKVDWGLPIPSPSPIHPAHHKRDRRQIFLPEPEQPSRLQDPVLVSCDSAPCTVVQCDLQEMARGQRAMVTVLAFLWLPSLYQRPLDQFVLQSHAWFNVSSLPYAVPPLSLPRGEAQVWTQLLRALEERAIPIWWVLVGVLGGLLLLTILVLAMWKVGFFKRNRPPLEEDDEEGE
T2 sequence (P05106 27-718, chain 2 of 2): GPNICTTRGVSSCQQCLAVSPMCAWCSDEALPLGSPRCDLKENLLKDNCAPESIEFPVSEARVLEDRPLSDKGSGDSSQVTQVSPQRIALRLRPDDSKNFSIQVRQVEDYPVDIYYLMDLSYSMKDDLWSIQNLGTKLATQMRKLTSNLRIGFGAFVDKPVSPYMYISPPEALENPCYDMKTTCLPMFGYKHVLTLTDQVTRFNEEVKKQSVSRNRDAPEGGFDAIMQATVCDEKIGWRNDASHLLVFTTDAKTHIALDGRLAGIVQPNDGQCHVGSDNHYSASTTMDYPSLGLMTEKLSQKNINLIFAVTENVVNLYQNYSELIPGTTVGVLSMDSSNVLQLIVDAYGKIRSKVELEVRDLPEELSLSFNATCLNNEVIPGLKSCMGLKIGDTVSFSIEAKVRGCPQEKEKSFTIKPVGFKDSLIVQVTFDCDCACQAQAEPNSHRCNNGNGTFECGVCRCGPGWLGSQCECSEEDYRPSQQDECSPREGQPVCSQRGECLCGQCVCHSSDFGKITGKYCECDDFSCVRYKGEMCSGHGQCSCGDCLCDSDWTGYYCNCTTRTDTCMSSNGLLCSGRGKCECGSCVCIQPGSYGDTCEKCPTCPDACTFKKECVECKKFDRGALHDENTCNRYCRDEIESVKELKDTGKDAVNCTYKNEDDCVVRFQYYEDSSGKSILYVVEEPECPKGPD
T1 sequence (P08514 32-1039, chain 1 of 2): as the sequence (P08514 32-1039, chain 1 of 2) above
T1 sequence (P05106 27-788, chain 2 of 2): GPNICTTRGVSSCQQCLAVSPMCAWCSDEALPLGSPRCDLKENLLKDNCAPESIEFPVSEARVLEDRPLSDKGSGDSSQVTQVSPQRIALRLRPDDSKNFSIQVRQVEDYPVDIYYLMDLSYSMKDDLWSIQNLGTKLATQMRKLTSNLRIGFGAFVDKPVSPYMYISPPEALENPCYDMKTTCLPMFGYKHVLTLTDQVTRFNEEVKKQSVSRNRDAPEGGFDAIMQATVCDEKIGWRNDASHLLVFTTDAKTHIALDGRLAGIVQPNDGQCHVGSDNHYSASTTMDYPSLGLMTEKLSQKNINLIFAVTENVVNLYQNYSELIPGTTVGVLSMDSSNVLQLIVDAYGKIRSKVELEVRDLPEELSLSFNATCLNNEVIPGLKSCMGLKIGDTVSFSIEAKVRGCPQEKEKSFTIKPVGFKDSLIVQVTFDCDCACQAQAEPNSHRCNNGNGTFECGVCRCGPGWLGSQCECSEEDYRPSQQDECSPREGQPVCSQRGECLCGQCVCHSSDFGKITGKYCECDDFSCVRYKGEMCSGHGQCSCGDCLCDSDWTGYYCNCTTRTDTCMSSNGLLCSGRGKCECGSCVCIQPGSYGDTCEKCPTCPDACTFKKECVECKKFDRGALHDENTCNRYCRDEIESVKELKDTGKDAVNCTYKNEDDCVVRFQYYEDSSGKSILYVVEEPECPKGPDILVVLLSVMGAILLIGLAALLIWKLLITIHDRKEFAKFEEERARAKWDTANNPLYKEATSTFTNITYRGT
T3 sequence (P08514 32-1039, chain 1 of 2): as the sequence (P08514 32-1039, chain 1 of 2) above
T3 sequence (P05106 27-788, chain 2 of 2): as the sequence (P05106 27-788, chain 2 of 2) above
T4 sequence (Q9QUM0 32-1033, chain 1 of 2): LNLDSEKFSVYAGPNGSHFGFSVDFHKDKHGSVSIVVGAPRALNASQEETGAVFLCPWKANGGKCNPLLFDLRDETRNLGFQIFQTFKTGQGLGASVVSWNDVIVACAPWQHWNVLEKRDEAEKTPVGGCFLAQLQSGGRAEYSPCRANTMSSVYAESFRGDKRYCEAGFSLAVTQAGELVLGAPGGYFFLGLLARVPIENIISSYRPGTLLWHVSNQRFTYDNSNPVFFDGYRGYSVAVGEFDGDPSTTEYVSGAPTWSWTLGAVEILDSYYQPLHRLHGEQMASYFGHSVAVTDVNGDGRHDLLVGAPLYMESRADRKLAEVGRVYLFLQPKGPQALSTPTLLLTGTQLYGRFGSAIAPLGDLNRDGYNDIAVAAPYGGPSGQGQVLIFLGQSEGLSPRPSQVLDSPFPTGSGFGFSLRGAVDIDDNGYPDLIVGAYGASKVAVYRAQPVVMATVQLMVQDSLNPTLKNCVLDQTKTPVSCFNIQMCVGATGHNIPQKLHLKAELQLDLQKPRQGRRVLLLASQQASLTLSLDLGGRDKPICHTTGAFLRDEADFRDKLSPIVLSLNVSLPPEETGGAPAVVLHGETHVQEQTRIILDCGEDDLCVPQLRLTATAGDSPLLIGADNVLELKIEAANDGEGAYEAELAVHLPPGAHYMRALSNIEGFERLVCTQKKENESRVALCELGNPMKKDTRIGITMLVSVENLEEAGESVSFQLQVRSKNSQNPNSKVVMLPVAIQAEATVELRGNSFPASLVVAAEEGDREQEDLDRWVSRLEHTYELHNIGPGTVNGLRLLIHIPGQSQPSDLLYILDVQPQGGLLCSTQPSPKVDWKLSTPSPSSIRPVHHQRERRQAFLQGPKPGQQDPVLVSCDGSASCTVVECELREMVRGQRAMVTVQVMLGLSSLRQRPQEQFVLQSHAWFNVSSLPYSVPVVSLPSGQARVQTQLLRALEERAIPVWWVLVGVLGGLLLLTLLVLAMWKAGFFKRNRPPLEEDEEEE
T4 sequence (O54890 26-787, chain 2 of 2): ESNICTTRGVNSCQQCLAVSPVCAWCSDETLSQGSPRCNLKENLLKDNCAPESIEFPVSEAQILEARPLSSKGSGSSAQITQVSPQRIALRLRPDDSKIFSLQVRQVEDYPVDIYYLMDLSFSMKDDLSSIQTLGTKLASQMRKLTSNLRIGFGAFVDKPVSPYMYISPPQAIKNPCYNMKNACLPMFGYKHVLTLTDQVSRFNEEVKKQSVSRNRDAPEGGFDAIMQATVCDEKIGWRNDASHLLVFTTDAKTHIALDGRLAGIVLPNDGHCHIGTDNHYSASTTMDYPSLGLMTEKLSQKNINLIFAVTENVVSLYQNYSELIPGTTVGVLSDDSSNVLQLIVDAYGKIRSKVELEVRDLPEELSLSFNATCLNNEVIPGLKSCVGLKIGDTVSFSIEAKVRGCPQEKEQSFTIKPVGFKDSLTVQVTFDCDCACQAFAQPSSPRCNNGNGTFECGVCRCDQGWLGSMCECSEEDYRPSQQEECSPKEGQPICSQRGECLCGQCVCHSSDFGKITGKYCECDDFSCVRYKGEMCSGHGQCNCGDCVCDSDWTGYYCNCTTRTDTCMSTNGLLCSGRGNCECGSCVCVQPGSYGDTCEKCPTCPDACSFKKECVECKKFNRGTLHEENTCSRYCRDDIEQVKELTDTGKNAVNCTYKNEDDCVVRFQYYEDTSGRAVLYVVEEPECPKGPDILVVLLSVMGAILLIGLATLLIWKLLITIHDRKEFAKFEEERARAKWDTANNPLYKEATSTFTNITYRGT

B1: TEG4-2c scFv (recombinant human anti-αIIbβ3 single-chain variable fragment with 6His-Gly-Cys-Cys C-terminus) (scFv, V domains shown)
VH: QVQLVESGGGVVQPGRSLRLSCAASGFTFSSYAMHWVRQAPGKGLEWVAVISYDGSNKYYADSVKGRFTISRDNSKNTLYLQMNSLRAEDTAVYYCARKSYFDYWGQGTLVTVSS
VL: VSELTQPASVSGSPGQSITISCTGTSSDVGGYNYVSWYQQHPGKAPKLMIYEVSNRPSGVSNRFSGSKSGNTASLTISGLQAEDEADYYCSSYTSSSTLVVFGGGTKLTVL
notes: Gly-Cys-Cys added after the 6His tag at the very C-terminus (printed in three-letter code as 'Gly-Cyc-Cys'), for site-specific grafting; Order at the C-terminus: scFv, c-myc tag, 6His, Gly-Cys-Cys; Purified fractions are said to hold monomers and dimers; also called scFv TEG4-2c; anti-αIIbβ3 TEG4-2c scFv; source: Pichia pastoris X33, secreted into the supernatant, purified (IMAC HisTrap excel, …)
binds: [1] | purified αIIbβ3 integrin | [2] | [3] | [4]
